T1: murine OPGbp[158-316] (murine, UniProt O35235 158-316)
T1 sequence: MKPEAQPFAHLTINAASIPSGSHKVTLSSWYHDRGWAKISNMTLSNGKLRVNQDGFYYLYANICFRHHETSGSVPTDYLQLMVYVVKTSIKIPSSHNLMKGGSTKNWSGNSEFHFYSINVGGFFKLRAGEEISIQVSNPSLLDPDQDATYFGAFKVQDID

T2: soluble ODAR-Fc fusion (FLAG-human ODAR extracellular domain-human Fc) (human, UniProt Q9Y6Q6 30-212)
T2 construct: extracellular domain; also called sODAR-Fc; not shown: amino terminal FLAG tag; carboxy terminal human Fc region
T2 sequence (looked up): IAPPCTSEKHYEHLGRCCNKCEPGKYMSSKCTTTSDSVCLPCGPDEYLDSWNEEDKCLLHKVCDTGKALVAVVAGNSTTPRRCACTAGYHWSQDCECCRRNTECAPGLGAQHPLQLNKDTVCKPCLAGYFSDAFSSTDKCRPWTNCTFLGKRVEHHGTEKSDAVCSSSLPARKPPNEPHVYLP

B1: “AT” antibody (full-length human IgG1) (antibody, V domains shown)
VH: QVQLVQSGAEVRKPGASVKVSCKASGYDFSNYAIHWVRQAPGQRLEWMGWINAGNGNTKFSQKFQGRITVTRDTAASTAYMELRSLRSEDTAVYYCARDSSNMVRGIIIAYYFDYWGQGTLVTVSS
VL: EIVMTQSPSSLSASVGDRVTITCRASQSISRYLNWYQLKPGKAPRLLIYGASSLQSGVPSRFSGSGSGAEFTLTISSLQPEDIATYYCQHTRAFGQGTKVEIKR
notes: Expressed in CHO cells; also called “AT” Ab; not shown: human IgG1 CH1, hinge, CH2 and CH3
B2: Fab “S” (Fab, V domains shown)
VH: EVQLLESGGGLVQPGRSLRLSCAASGFTFDDYAMHWVRQAPGKGLEWVSGISWNSGRIGYADSVKGRFTISRDNAKNSLYLQMNSLRPEDTAFYYCAKGGSTSARYSSGWYYWGQGTLVTVSS
VL: QSVLTQPPSVSVSPGQTATITCSGDALPKQYVYWYRQKPGQAPLLVIYEDSERPSGIPERFSGSSSGTEVTLSISGVQAEDEADYYCQSTDSSGTYVVFGGGTKLTVLS
notes: also called Fab pattern “S”
B3: human OPGbp [143-317] (ligand, UniProt O14788 143-317, looked up)
chain: EKAMVDGSWLDLAKRSKLEAQPFAHLTINATDIPSGSHKVSLSSWYHDRGWAKISNMTFSNGKLIVNQDGFYYLYANICFRHHETSGDLATEYLQLMVYVTKTSIKIPSSHTLMKGGSTKYWSGNSEFHFYSINVGGFFKLRSGEEISIEVSNPSLLDPDQDATYFGAFKVRDID
notes: also called OPGL

Several values for one entry are separate records, joined by “and”; a condition that tells them apart may be missing. Equal entries are not always repeated.

Experiment [1] concerns the target B3. The experiment can be described thus: cell-based or functional assay.
Experiment [2] has as its target T1, murine OPGbp[158-316]. The experiment can be described thus: EIA on plates coated with murine OPGbp[158-316]. The procedure:
After overnight incubation, the protein solutions were removed from the plate and 200 μl of 5% Chicken Serum (Gibco/BRL Cat#16110-082) in PBST (PBS plus 0.05% Tween 20) was added to each well of the plate and plates were incubated at room temperature (RT) for 90 min with agitation. After incubation and blocking, plates were washed 4 times with 1×K-P wash solution in dH₂O (Cat#50-63-00, Kirkegaard & Perry Laboratories) and dried. […] Plates were incubated for three hours at room temperature with agitation, washed four times with 1× K-P wash solution and dried. Goat anti-human IgG (Fc) (Jackson ImmunoResearch, Cat#109-036-098) was diluted 1:5000 in 5% Chicken Serum in PBST and 100 μl was added to each well. […] 100 μl of undiluted ABTS substrate (Kirkegaard & Perry; Cat#50-66-00) was added to each well and the dish was incubated at room temperature until sufficient blue-green color developed. Color development was stopped by addition of 100 μl 1% SDS. Quantitation of color development was performed using a microtiter plate reader with detection at 405 nm.

The target in experiment [3] is B3. The experiment can be described thus: SPR (BIAcore), OPGbp on CM5 chip (147 RU). The protocol: (§1) The binding constant (Kd), on rate constant (ka) and off rate constant (kd) for Fabs “AT” and “Y” and “AT” antibody were determined by surface plasmon resonance techniques (BIAcore, Pharmacia, Piscataway, N.J.) and the results are shown in Table II. Fabs were prepared as described in Example 4 and “AT” antibody prepared as described in Example 7. OPGbp was immobilized on a CM5-chip by standard amine coupling. The Kd and rate constants were determined by BIAEVALUATION 3.0 software (Pharmacia).

Experiment [4] has as its target B3. The experiment can be described thus: SPR (BIAcore), immobilized OPGbp [143-317].
Experiment [5] addresses B3. The experiment can be described thus: SPR (BIAcore), OPGbp on CM5 chip (80 RU). The procedure:
as §1
Background: SPR reads the build-up and loss of mass on a sensor chip optically.

Experiment [6] addresses B3. The experiment can be described thus: SPR (BIAcore), OPGbp on CM5 chip (47 RU). The protocol: as §1
Experiment [7] deals with B3. The experiment can be described thus: phage ELISA on plated OPGbp [143-317]. For orientation: An ELISA detects its analyte on a solid surface through an enzyme-linked reagent.
Experiment [8] addresses T2, soluble ODAR-Fc fusion (FLAG-human ODAR …). The experiment can be described thus: FRET competition, unlabelled OPGbp against OPGbp-Eu on sODAR-Fc, in PBS (positive control). The procedure: (§2) A 1 hour preincubation with OPGbp was added for increased sensitivity. A soluble extracellular domain of human ODAR was constructed as a fusion polypeptide with an amino terminal FLAG tag and a carboxy terminal human Fc region. The Fc region is recognized and bound by a polyclonal goat anti-human Fc specific allophycocyanin (APC) which is detected by […] at 665 nm. […] Binding of OPGbp to ODAR in this assay triggers a fluorescent energy transfer and is highly sensitive for competition curves. A decrease in the A665/A620 absorbance ratio indicates inhibition of OPGbp binding to ODAR.
(§3) The Fab “Y” clone 1B4 was from the predominant 9 member pattern from one 96-well plate (all with same amino acid sequence) from the optimized plated OPGbp screen using a 1 μM OPGbp elution for 90 min. […] Similar IC50's were obtained with the duplicate preparations “A” and “B”.

The target is the same in experiment [9]. The experiment can be described thus: FRET competition, unlabelled OPGbp against OPGbp-Eu on sODAR-Fc, in TBS (positive control). The procedure:
as §2, §3

Turning to B1, in [1], the “RAW cell assay, IC50, preparation “AT”405” value is 3 ug/ml and 20.1 nM; the “RAW cell assay, IC50, preparation “AT”406” value is 60.3 nM and 9 ug/ml; the “RAW cell assay, IC50, preparation “AT”407” value is 21.4 nM and 3.2 ug/ml; the “bone marrow assay, inhibition of TRAP formation, IC50, preparation “AT”406” value is 2.35 µg/ml and 14.4 nM. In experiment [1], the “murine bone marrow assay, IC50, preparation “AT”405” value is 2.15 ug/ml and 14.4 nM; the “murine bone marrow assay, IC50, preparation “AT”407” value is 1.85 ug/ml and 12.5 nM. Also, the binding result in experiment [2] was “no binding (tested: 2 ug/ml down to 1.953 ng/ml)”. In experiment [3], this molecule displayed a Kd of 0.42 nM, a koff of 0.0024 s⁻¹ and a kon of 5.7e+06 M⁻¹ s⁻¹. In experiment [4], this molecule yielded a Kd of 1.18 nM, a koff of 0.002 s⁻¹ and a kon of 1.7e+06 M⁻¹ s⁻¹. In [5], this molecule had a Kd of 0.33 nM, a koff of 0.0027 s⁻¹ and a kon of 8.1e+06 M⁻¹ s⁻¹. Further, in experiment [6], the Kd was determined as 0.43 nM, the koff was 0.0031 s⁻¹ and the kon was determined as 7.3e+06 M⁻¹ s⁻¹.

Consider B2, for which the binding result in [7] is given as “binds”.

Take B3: the IC50 in experiment [8] is 0.93 nM; in [9] it was 0.89 nM.

A word on the Kd: it is the concentration at which binding is half-saturated. The koff is a measure of how fast the partners let go of each other. Lower therefore signals slow dissociation. Usually kon stands for the second-order rate constant of association. Low readings indicate slow association, high ones fast association. As usually defined, the IC50 is the concentration that gives 50% inhibition. Read a high IC50 as weaker potency in that assay.

For the origin of these results see patent US20140147444A1 (published 2014).
